Reference: patent US11035003B2, “TRPC6 involved in glomerulonephritis” (Duke University, priority 2005, dated 2021)
Substitutions are numbered along the chain they refer to.

Columns and labels:
TRPC6^P112Q = target: T1, TRPC6^P112Q (Homo sapiens, UniProt Q9Y210, P112Q); experiment: Fura-2 single cell imaging of divalent cations in HEK 293 cells transfected with TRPC6^P112Q; format: cell-based
T1 construct: expressed in transfected cells; host or cells: HEK 293
T1 sequence (Q9Y210 1-931 P112Q): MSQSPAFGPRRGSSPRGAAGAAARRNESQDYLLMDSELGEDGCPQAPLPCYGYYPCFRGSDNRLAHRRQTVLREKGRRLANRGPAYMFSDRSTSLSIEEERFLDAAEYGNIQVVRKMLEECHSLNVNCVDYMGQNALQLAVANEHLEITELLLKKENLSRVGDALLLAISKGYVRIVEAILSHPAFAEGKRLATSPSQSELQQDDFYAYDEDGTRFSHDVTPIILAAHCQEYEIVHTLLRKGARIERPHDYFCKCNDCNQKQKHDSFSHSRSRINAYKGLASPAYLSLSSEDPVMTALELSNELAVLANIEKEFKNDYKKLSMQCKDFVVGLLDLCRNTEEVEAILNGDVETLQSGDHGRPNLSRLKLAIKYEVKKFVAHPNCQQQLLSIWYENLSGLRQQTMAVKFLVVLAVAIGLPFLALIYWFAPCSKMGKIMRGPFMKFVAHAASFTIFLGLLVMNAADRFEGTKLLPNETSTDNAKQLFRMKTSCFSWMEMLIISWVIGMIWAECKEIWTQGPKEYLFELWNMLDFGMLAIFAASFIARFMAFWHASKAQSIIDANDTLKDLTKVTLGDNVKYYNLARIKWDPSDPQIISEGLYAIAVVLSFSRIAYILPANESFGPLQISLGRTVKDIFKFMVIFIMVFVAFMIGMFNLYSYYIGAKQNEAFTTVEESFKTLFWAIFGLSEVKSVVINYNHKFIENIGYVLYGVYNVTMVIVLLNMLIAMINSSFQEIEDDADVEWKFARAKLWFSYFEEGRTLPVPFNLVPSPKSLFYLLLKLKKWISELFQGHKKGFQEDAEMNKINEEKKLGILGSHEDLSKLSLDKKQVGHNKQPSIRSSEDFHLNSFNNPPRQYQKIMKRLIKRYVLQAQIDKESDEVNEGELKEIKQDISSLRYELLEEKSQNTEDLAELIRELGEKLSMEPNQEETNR
Excerpt: (§1) To determine the effect of the P112Q mutation on TRPC6 function, we studied HEK 293 cells (human kidney cells) transfected with mutant (TRPC6^P112Q) or wild-type (WT) TRPC6 (14). The WT TRPC6 was cloned from a human kidney cDNA library. […] Diacylglycerol (DAG) is a potent activator of TRPC6 (15). We therefore measured the intracellular calcium concentration ([Ca^+2]i) using Fura fluorescence in HEK 293 cells expressing either the WT or TRPC6^P112Q after exposure to the DAG analogue OAG (1-oleoyl-2-acetyl-sn-glycerol). OAG perfusion increased late Ca^+2 transients in cells transfected with WT TRPC6 as expected (FIG. 3A and FIG. 7).
(§2) Angiotensin II acting through its AT1 receptor plays a critical role in the generation of proteinuria and progression of kidney injury in a number of kidney diseases including FSGS (16). AT1 receptors, coupled to heterotrimeric G nucleotide-binding proteins, activate phospholipase C-beta isoforms that hydrolyze phosphatidylinositol 4,5-bisphosphate (PIP2). This triggers production of inositol 1,4,5-trisphosphate (InsP3) and diacylglycerol (DAG) releases internal calcium stores and activates Ca^+2 entry, respectively (17). We examined whether the P112Q mutation would affect angiotensin II-dependent (i.e., receptor-operated) calcium signaling. HEK 293 cells were co-transfected with the AT1 angiotensin receptor (AT-YFP) and either WT TRPC6 or TRPC6^P112Q. [Ca^+2]i changes were measured after exposure to angiotensin II (FIG. 3B and FIG. 8); similar to the OAG experiments, the peak angiotensin II-stimulated [Ca^+2]i was higher in cells expressing the mutant protein compared with WT controls ([Ca^2+]i TRPC6^P112Q=640±66 nM vs. [Ca^2+]i WT TRPC6=357±46 nM; p<0.05). To establish that the P112Q mutation is not isolated to TRPC6 channels, we introduced the analogous mutation into the TRPC3 channel.
(§3) HEK 293 cells were plated on glass bottom plates at near confluence. After 24 hours, the cells were transfected with plasmids in the presence of lipofectamine 2000 (Invitrogen). Here 3 μg of TRPC6 plasmid (WT or mutant) and 1 μg of ATR-YFP plasmid were incubated for 4 hours in Optimem 2000 media (Gibco) and then changed to 10% FBS/DMEM media. For biotinylation experiments, 24 hours after transfection with TRPC6-V5 and TRPC6^P112Q-V5 constructs, cells were washed with ice cold PBS and incubated with sulfo-NHS-SS-Biotin (2 mg/ml) (Pierce) for 30-min at 4° C. After 3 washes with PBS with 10 mM glycine, cells were incubated with RIPA lysis buffer for 30-min at 4° C. Lysates were passed through a 20 G and then 25 G needle for 25 passes. Samples were then collected by centrifuging at 20K G for 15-min at 4° C. Supernatants were then incubated overnight with streptavidin agaraose beads (Pierce), washed 3 times and then heated to 37° C. […]

WT TRPC6 = target: T2, WT TRPC6 (Homo sapiens, UniProt Q9Y210); experiment: Fura-2 single cell imaging of divalent cations in HEK 293 cells transfected with WT TRPC6; format: cell-based
T2 construct: expressed in transfected cells; host or cells: HEK 293
T2 sequence (Q9Y210 1-931): T1 sequence (Q9Y210 1-931 P112Q) with Q112P
Excerpt: as §1, §2, §3

| OAG-stimulated barium transients, 4340/380 ratio (TRPC6^P112Q; HEK293 cells transfected with TRPC6P112Q, Fura-2, barium as surrogate for calcium) | Peak intracellular calcium concentration [Ca2+]i after OAG perfusion (TRPC6^P112Q; HEK 293 cells transfected with TRPC6^P112Q, 100 μM OAG, Fura fluorescence) [nM] | Peak intracellular calcium concentration [Ca2+]i after OAG perfusion (WT TRPC6; HEK 293 cells transfected with WT TRPC6, 100 μM OAG, Fura fluorescence) [nM] | OAG-stimulated barium transients, ratio (WT TRPC6; HEK293 cells transfected with WT TRPC6, Fura-2, barium as surrogate for calcium) | Compound | Peak angiotensin II-stimulated [Ca2+]i (TRPC6^P112Q; HEK 293 cells co-transfected with AT1 receptor (AT-YFP) and TRPC6^P112Q, angiotensin II 1 μM) [nM] | Duration of angiotensin II-induced barium signal (TRPC6^P112Q; HEK 293 cells co-transfected with AT1 receptor and TRPC6^P112Q) [s] | Peak angiotensin II-stimulated [Ca2+]i (WT TRPC6; HEK 293 cells co-transfected with AT1 receptor (AT-YFP) and WT TRPC6, angiotensin II 1 μM) [nM] | Duration of angiotensin II-induced barium signal (WT TRPC6; HEK 293 cells co-transfected with AT1 receptor and WT TRPC6) [s] |
| --- | --- | --- | --- | --- | --- | --- | --- | --- |
| – | – | – | – | angiotensin II: ligand acting through its AT1 receptor, used to stimulate receptor-operated calcium signaling (DRVYIHPF; Angiotensin-2; UniProt P01019 25-32, looked up) | 640 ± 66 | 1054 ± 282 | 357 ± 46 | 271 ± 121 |
| 1.30±0.7 | 181 ± 25 | 106 ± 15 | 0.49±0.18 | CCCCCCCC/C=C\CCCCCCCC(=O)OC[C@H](CO)OC(C)=O [OAG, 1-oleoyl-2-acetyl-sn-glycerol] | – | – | – | – |
